The target in assay [1] is HaloTag-KIF21B full-length (FL). In words: single-molecule photobleaching step counting.
In assay [2] the target is microtubules (polymer of alpha and beta tubulin). In words: single-molecule TIRF microscopy on microtubules.
In another assay the target is HaloTag-KIF21B 1-657. In words: single-molecule photobleaching step counting.

HaloTag-KIF21B 1-657 (domain or fragment), sequence (O75037 1-657): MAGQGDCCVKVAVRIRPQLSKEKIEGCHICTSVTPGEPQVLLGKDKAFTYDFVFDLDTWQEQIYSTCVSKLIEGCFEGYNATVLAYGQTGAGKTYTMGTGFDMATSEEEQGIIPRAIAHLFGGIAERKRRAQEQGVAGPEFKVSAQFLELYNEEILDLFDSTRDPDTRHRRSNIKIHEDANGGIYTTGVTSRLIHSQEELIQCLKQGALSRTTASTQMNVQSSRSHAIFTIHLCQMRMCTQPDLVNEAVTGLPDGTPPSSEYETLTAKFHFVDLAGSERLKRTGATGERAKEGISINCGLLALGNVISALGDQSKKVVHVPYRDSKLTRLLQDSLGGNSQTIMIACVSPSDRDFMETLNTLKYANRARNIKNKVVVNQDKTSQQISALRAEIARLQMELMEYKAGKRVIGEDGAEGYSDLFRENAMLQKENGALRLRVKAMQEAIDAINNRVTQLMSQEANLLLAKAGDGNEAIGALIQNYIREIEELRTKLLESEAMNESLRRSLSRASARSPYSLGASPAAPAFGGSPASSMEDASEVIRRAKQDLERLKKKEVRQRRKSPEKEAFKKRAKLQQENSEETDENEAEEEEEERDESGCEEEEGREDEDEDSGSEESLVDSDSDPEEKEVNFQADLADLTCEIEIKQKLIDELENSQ
HaloTag-KIF21B full-length (FL) (natural protein), sequence (O75037 whole entry): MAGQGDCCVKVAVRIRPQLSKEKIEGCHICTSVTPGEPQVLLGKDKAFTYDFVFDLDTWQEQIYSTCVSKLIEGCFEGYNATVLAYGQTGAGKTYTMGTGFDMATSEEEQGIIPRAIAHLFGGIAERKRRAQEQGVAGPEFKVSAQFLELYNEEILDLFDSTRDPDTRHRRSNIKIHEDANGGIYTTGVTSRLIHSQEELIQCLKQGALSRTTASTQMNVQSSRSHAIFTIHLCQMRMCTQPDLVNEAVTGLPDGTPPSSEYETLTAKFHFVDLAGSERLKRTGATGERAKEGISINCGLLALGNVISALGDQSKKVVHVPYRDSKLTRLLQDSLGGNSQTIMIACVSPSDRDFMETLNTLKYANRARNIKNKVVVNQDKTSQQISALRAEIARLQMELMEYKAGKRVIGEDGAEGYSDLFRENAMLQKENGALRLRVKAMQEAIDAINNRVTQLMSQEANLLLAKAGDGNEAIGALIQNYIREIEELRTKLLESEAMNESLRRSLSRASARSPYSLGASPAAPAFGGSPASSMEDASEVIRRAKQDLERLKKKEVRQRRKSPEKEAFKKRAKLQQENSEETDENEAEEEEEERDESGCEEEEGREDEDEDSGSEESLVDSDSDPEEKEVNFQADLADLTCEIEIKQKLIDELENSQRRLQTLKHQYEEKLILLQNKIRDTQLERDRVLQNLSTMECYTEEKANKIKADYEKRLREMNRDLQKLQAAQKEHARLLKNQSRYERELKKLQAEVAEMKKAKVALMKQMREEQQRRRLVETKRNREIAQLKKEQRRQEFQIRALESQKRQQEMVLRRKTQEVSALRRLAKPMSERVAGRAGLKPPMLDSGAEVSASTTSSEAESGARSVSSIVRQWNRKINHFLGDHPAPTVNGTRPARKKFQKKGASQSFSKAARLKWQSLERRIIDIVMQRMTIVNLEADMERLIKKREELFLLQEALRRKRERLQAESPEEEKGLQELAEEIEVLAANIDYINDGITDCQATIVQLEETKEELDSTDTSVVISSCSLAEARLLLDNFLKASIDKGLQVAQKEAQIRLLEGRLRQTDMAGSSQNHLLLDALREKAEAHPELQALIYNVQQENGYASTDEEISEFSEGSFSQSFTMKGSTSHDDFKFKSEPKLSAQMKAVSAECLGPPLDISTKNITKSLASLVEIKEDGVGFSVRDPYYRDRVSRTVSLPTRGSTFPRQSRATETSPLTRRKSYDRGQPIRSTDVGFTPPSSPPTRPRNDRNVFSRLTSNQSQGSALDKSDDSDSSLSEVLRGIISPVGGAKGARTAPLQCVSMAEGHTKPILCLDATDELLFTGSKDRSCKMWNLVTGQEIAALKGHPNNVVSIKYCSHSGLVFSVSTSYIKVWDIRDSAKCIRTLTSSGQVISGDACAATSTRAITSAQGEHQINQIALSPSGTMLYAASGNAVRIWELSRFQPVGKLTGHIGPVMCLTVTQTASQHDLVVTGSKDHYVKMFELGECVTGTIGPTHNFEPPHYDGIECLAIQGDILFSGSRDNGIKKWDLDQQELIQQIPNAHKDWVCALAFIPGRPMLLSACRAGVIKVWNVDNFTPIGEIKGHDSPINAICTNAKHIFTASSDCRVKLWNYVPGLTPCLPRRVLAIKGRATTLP
microtubules (polymer of alpha and beta tubulin), sequence (P68363 whole entry, chain 1 of 2): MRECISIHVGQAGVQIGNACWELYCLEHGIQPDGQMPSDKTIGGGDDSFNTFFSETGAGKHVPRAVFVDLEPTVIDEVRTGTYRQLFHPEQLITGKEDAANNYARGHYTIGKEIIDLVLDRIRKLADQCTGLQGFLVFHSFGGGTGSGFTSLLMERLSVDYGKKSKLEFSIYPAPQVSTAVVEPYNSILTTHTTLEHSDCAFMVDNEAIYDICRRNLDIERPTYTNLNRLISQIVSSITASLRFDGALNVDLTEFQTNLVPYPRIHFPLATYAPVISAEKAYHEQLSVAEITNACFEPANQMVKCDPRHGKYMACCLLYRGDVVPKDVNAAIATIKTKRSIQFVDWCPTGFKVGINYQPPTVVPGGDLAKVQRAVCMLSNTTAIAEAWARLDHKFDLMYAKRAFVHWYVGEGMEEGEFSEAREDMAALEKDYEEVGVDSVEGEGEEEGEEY
microtubules (polymer of alpha and beta tubulin), sequence (A8K068 whole entry, chain 2 of 2, further chain): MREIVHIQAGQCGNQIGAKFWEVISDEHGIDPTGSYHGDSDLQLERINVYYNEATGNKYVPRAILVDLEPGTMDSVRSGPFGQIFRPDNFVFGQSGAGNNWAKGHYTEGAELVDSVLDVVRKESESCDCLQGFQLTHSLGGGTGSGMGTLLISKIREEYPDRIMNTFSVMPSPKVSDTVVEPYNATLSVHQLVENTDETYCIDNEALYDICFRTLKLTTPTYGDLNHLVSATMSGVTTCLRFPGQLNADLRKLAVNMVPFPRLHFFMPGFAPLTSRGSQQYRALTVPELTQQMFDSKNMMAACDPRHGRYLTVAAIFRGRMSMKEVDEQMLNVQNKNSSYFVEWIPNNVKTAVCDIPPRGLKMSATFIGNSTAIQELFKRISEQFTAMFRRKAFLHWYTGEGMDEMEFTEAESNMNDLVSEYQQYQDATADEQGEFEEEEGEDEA

In assay [1], “HaloTag-KIF21B full-length (FL) (natural protein)” displayed a stoichiometry N of 2. The same substance gave a particles per μm MT (particles/μm MT) in assay [2] of 0.5.
With “HaloTag-KIF21B 1-657 (domain or fragment)”, in the assay with HaloTag-KIF21B 1-657, the stoichiometry N came out at 2. The particles per μm MT (particles/μm MT) in assay [2] was 0.067.

For the origin of these results see article PMC5283298.
